Patent US20090162366A1 (KIRIN PHARMA, published 2009)

B1: N547 (antibody, V domains shown)
VH: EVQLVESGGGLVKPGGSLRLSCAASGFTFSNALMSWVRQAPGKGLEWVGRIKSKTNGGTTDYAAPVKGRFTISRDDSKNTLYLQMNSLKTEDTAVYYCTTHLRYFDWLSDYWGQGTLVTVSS
VL: QSVLTQPPSMSAAPGQKVTISCSGSSSNIGNNYISWYQQLPGTAPKVLIYDNNKRPSGIPDRFSGSKSGTSATLGITGLQTGDEADYYCGSWDSSLSAGVFGTGTKVTVLG
B2: L66 (antibody, V domains shown)
VH: EVQLVESGGGVVRPGGSLRLSCAASGFTFDDYGMSWVRQAPGKGLEWVSGINWNGGSTGYADSVKGRFTISRDNAKNSLYLQMNSLRAEDTALYYCARDRVTMVRGVIMDYYGMDVWGQGTTVTVSS
VL: QTVVTQEPSLTVSPRGTVTLTCSSSTGAVTSGYYPGWFQLKPGQAPMSLIYSARKKHSWTPARFSGSLLGGKAALTLSGVQPEDEAEYYCLLYYGGAYVFGTGTKVTVLG
B3: C40G1 (antibody, V domains shown)
VH: QLQLQESGPGLVKPSETLSLTCTVSGGSISSSFYYCGWIRQPPGKGLEWIGSIYYRGSTYYNPSLKSRVTISVDTSKNQFSLKLSSVTAADTAVYYCARRVTMVRGVKGDYFDYWGQGTLVTVSS
VL: DIQMTQSPSSLSASVGDRVTITCRASQGISSWLAWYQQKPEKVPKSLIYAASSLQSGVPSRFSGSGSGTDFTLTISSLQPEDFATYYCQQYNYYPLTFGGGTKVEIKR
B4: C40G4 (antibody, V domains shown)
VH: B3 VH
VL: B3 VL

What follows are binders tested against T1, M2 expressed on MDCK cells infected with influenza A/PR/8/34 (influenza A virus A/PR/8/34, UniProt P06821 1-97) (assay: cell ELISA, A/PR/8/34-infected MDCK).
T1 construct: whole, on cells
T1 sequence (P06821 whole entry): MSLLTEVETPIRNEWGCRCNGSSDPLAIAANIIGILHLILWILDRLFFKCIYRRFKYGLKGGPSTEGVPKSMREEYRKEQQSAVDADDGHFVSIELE
In the case of B1, the “fold greater reactivity than F1 and F2” value is reported as greater than 100 fold. With B2 the “fold greater reactivity than F1 and F2” value was greater than 100 fold. For B3, the “fold greater reactivity than F1 and F2” value was greater than 100 fold.

Each binder was assayed against T1, M2 expressed on MDCK cells infected … (assay: cell ELISA on infected MDCK cells).
Binder B1 has an EC50 of 0.104 µg/mL. For B2, the EC50 was 0.117 µg/mL. B3 showed an EC50 of 0.183 µg/mL. B4 showed an EC50 of 0.301 µg/mL.

The binders below were run against T1, M2 expressed on MDCK cells infected … (assay: cell ELISA, A/PR/8/34-infected MDCK, Ab 1 µg/ml, no peptide).
Binder B1 has an OD450 of 0.504 OD450. For B2, the OD450 was 0.931 OD450. B3 was tested, and the OD450 was 0.799 OD450.

These binders were tested against T1, M2 expressed on MDCK cells infected … (assay: cell ELISA, A/PR/8/34-infected MDCK, Ab 1 µg/ml, competitor M2 peptide 20 µg/ml).
B1 was tested, and the OD450 with competitor was 0.062 OD450. For B2, the OD450 with competitor was 0.113 OD450. B3 gave an OD450 with competitor of 0.195 OD450.
